# Results published in paper PMC2987766.
# Experiments:
# [1] = biological target: Recombinant perlecan domain I (PlnDI), undigested (UniProt Q05793); test: far-Western, overlay or dot blot; solution phase, pH 6.0: PlnDI (5 ug) pre-incubated with 20 ng VEGF165 for 1 hr at room temperature (25 mM HEPES), then blotted onto nitrocellulose; bound VEGF165 detected with anti-VEGF165 antibodies; background subtracted
# [2] = biological target: PlnDI pre-digested with a heparinase cocktail (heparinases I, II and III); test: far-Western, overlay or dot blot; solid phase: PlnDI, undigested or pre-digested with heparinase cocktail +/- chondroitinase ABC, immobilised on nitrocellulose and incubated with VEGF165; bound VEGF165 detected with VEGF monoclonal antibodies, densitometry; heparin 0.25 ug/ml for competitive inhibition
# [3] = biological target: Recombinant perlecan domain I (PlnDI), undigested (UniProt Q05793); test: as above
# [4] = biological target: Recombinant perlecan domain I (PlnDI), undigested (UniProt Q05793); test: far-Western, overlay or dot blot; solution phase, pH 7.0: PlnDI (5 ug), untreated or pre-digested with heparinase cocktail and/or chondroitinase ABC, pre-incubated with 20 ng VEGF165 for 1 hr at room temperature (25 mM HEPES), then blotted onto nitrocellulose; bound VEGF165 detected with anti-VEGF165 antibodies; background subtracted
substance,measurement,setting,value
Recombinant human vascular endothelial growth factor-165 (ligand),percent reduction of binding against pH 8.0,[1],80%
same,percent reduction of binding against undigested PlnDI,[2],75%
same,percent of binding prevented by heparin 0.25 ug/ml,[3],80%
same,percent reduction of binding against pH 8.0,[4],50%
